Laboratory results reported in patent publication US20260167959A1, “APTAZYME-BASED REGULATABLE GENE EXPRESSION SYSTEMS” (REJUVENATE BIO INC, priority 2022, published 2026).

Each molecule was assayed on Renilla luciferase RNA (assay: Barcoded aptazyme variant library screen: un-cleaved Renilla luciferase RNA by barcode read counts, HEK293-T cells). Settings: un-cleaved Renilla luciferase RNA, HEK293-T cells cultured with 1 mM theophylline (ON) over without theophylline (OFF); barcode read counts, triplicate.
Format: cell-based
In short: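 Barcode sequencing of cDNA versus DNA, normalized per aptazyme, gave the un-cleaved Renilla luciferase RNA fraction and fold-change with versus without theophylline (triplicates). Library: T3H48 ribozyme with one of seven theophylline aptamer variants inserted at each position, placed in the Renilla 3′ UTR of a dual-luciferase vector.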

Molecule | Fold change in RNA expression between the ON state and the OFF state [fold]
RA240 (nucleic acid, expressed or natural sequence) DNA: GCGCGTCCTGGATTCGCGGAAACGCGTACATCCAGCTGACGAGTCCCCGAGAATACCAGCATCGTCTTGATGCCCTTGGAAGTCTCGAAATAGGACGAAACGCGC | 1.1
RA237 (nucleic acid, expressed or natural sequence) DNA: GCGCGTCCTGGATTCGCGGAAACGCGTACATCCAGCTGACGGAGAATACCAGCATCGTCTTGATGCCCTTGGAAGTCTCAGTCCCAAATAGGACGAAACGCGC | 1.1
RA249 (nucleic acid, expressed or natural sequence) DNA: GCGCGTCCTGGATTCGCGGAAACGCGTACATCCACCGGAATACCAGCATCGTCTTGATGCCCTTGGAAGTCCGGGCTGACGAGTCCCAAATAGGACGAAACGCGC | 1.1
RA023 (nucleic acid, expressed or natural sequence) DNA: GCGCGTCCTGGATTCGCGGAAACGCGTGAGAATACCAGCATCGTCTTGATGCCCTTGGAAGTCTCACATCCAGCTGACGAGTCCCAAATAGGACGAAACGCGC | 2.6
RA238 (nucleic acid, expressed or natural sequence) DNA: GCGCGTCCTGGATTAGAATACCAGCATCGTCTTGATGCCCTTGGAAGTCTCGCGGAAACGCGTACATCCAGCTGACGAGTCCCAAATAGGACGAAACGCGC | 1.1
RA234 (nucleic acid, expressed or natural sequence) DNA: GCGCGTCCTGGATTCGCGGAAACGCGTACATCCAGCTGACGAGTCCCAAATAGGACGAAACCGGAATACCAGCATCGTCTTGATGCCCTTGGAAGTCCGGCGC | 1.1
RA248 (nucleic acid, expressed or natural sequence) DNA: GCGCGTCCTGGATTCGCGGAAACGCGTACATCCAGCTGACGAGTCCAGTGATACCAGCATCGTCTTGATGCCCTTGGCAGCACTCAAATAGGACGAAACGCGC | 1.1
RA024 (nucleic acid, expressed or natural sequence) DNA: GCGCGTCCTGGATTCGCGGAAACGCGTACATCCAGCTGACGAGTCCCAAATAGGACAGTGATACCAGCATCGTCTTGATGCCCTTGGCAGCACTGAAACGCGC | 2.6
RA242 (nucleic acid, expressed or natural sequence) DNA: GCGCGTCCTGGATTCCGGAATACCAGCATCGTCTTGATGCCCTTGGAAGTCCGGCGCGGAAACGCGTACATCCAGCTGACGAGTCCCAAATAGGACGAAACGCGC | 1.1
RA247 (nucleic acid, expressed or natural sequence) DNA: GCGCGTCCTGGATTCGCGGAAACGCGTACATCCAGCTGAGGAATACCAGCATCGTCTTGATGCCCTTGGAAGTCCCGAGTCCCAAATAGGACGAAACGCGC | 1.1
RA241 (nucleic acid, expressed or natural sequence) DNA: GCGCGTCCTCCGGAATACCAGCATCGTCTTGATGCCCTTGGAAGTCCGGGGATTCGCGGAAACGCGTACATCCAGCTGACGAGTCCCAAATAGGACGAAACGCGC | 1.1
RA231 (nucleic acid, expressed or natural sequence) DNA: GCGAGAATACCAGCATCGTCTTGATGCCCTTGGAAGTCTCGCGTCCTGGATTCGCGGAAACGCGTACATCCAGCTGACGAGTCCCAAATAGGACGAAACGCGC | 1.1
RA233 (nucleic acid, expressed or natural sequence) DNA: GCAGTGATACCAGCATCGTCTTGATGCCCTTGGCAGCACTGCGTCCTGGATTCGCGGAAACGCGTACATCCAGCTGACGAGTCCCAAATAGGACGAAACGCGC | 1.1
RA232 (nucleic acid, expressed or natural sequence) DNA: GCCCGGAATACCAGCATCGTCTTGATGCCCTTGGAAGTCCGGGCGTCCTGGATTCGCGGAAACGCGTACATCCAGCTGACGAGTCCCAAATAGGACGAAACGCGC | 1.1
RA243 (nucleic acid, expressed or natural sequence) DNA: GCGCGTCCTGGATTCGCGGAAACGCGTACATCCAGCCCGGAATACCAGCATCGTCTTGATGCCCTTGGAAGTCCGGTGACGAGTCCCAAATAGGACGAAACGCGC | 1.1
RA236 (nucleic acid, expressed or natural sequence) DNA: GCGCGTCCTGGATTCGCGGAAACGCGTACACCGGAATACCAGCATCGTCTTGATGCCCTTGGAAGTCCGGTCCAGCTGACGAGTCCCAAATAGGACGAAACGCGC | 1.1
RA235 (nucleic acid, expressed or natural sequence) DNA: GCGCGTCCTGGATTCGCGGAAACGCGTACATCCAGCTGACGAGTCCCAAATAGGAGAGAATACCAGCATCGTCTTGATGCCCTTGGAAGTCTCCGAAACGCGC | 1.1
RA246 (nucleic acid, expressed or natural sequence) DNA: GCGCGTCCTGGATTCGCGGAGAATACCAGCATCGTCTTGATGCCCTTGGAAGTCTCGAAACGCGTACATCCAGCTGACGAGTCCCAAATAGGACGAAACGCGC | 1.1
RA245 (nucleic acid, expressed or natural sequence) DNA: GGGAATACCAGCATCGTCTTGATGCCCTTGGAAGTCCCGCGTCCTGGATTCGCGGAAACGCGTACATCCAGCTGACGAGTCCCAAATAGGACGAAACGCGC | 1.1
RA239 (nucleic acid, expressed or natural sequence) DNA: GCGCGTCCTGGATTCGCGGAAACGCGTACATCCAGCTGACCCGGAATACCAGCATCGTCTTGATGCCCTTGGAAGTCCGGGAGTCCCAAATAGGACGAAACGCGC | 1.1
RA244 (nucleic acid, expressed or natural sequence) DNA: GCGCGTCCTGGATTCGCGGAAACGCGTCCGGAATACCAGCATCGTCTTGATGCCCTTGGAAGTCCGGACATCCAGCTGACGAGTCCCAAATAGGACGAAACGCGC | 1.1
